According to IntAct's records for PubMed 21441914:

B1: Double-strand break repair protein rad32 (Schizosaccharomyces pombe (strain ATCC 38366 / 972)), Q09683 (parent)
chain: MPNDPSDMNNELHNENTIRILISSDPHVGYGEKDPVRGNDSFVSFNEILEIARERDVDMILLGGDIFHDNKPSRKALYQALRSLRLNCLGDKPCELELLSDTSLTTGDTAVCNINYLDPNINVAIPVFSIHGNHDDPSGDGRYSALDILQVTGLVNYFGRVPENDNIVVSPILLQKGFTKLALYGISNVRDERLYHSFRENKVKFLRPDLYRDEWFNLLTVHQNHSAHTPTSYLPESFIQDFYDFVLWGHEHECLIDGSYNPTQKFTVVQPGSTIATSLSPGETAPKHCGILNITGKDFHLEKIRLRTVRPFIMKDIILSEVSSIPPMVENKKEVLTYLISKVEEAITEANAQWYEAQGTVPVVENEKPPLPLIRLRVDYTGGYQTENPQRFSNRFVGRVANATDVVQFYLKKKYTRSKRNDGLYTSAVEDIKINSLRVESLVNEYLKTNRLECLPEDSLGEAVVNFVEKDDRDAIKECVETQLNKQINLLVKKRVTEENLEQEISSIINDLPKISTTKRKDYEELPEEVSETSINIAEHTPVLKHTSSLLDHHSPLATSSSEHEMEATPSPALLKKTNKRRELPSSLTKKNTRTPQRSKEVKKVPARKLSQSTKKSDKNTQSTLLFYDPSSTTEAQYLDNEDDEILDD
partner: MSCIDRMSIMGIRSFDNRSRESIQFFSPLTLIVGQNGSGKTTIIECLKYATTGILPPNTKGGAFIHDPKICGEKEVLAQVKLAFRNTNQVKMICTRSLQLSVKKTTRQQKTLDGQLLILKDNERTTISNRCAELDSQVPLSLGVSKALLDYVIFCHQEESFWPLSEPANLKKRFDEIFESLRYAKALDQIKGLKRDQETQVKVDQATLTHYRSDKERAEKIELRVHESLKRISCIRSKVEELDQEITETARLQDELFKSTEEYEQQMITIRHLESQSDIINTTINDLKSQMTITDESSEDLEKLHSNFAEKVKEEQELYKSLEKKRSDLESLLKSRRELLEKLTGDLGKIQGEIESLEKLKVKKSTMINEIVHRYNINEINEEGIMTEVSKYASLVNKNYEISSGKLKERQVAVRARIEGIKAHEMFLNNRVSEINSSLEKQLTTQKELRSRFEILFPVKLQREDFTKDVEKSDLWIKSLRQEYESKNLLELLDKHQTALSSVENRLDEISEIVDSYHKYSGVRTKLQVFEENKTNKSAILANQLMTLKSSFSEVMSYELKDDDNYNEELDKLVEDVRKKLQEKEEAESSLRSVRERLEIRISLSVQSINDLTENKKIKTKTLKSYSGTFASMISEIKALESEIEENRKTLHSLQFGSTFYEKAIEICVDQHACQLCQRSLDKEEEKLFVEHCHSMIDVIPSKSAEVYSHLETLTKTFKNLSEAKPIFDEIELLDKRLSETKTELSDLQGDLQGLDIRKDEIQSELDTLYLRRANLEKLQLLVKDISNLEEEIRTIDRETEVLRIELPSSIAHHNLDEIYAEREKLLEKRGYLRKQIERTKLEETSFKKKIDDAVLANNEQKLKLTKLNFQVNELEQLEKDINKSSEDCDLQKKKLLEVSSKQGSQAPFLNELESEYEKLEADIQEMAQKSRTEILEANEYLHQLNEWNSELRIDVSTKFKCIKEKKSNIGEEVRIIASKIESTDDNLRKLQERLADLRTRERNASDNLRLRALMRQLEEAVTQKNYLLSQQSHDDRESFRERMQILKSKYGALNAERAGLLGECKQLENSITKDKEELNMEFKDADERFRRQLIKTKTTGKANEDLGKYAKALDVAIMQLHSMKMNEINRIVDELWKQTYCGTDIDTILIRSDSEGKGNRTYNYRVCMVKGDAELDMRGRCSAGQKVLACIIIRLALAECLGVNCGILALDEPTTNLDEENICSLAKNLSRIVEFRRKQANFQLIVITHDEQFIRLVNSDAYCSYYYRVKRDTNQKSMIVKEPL

Variants of: B1
Details: with rad50_schpo rad50, Q9UTJ8

Effect of a mutation on the interaction, disrupting interaction:
C454R;L455R
C454R;L455R;C479R;V480R
C479R;V480R
